Patent US6329500A, “Transforming growth factor-β binding site” (University of Virginia Patent Foundation, priority 1999, dated 2001)
Blank lines part the entries; values can stand above or below the molecule they belong to.

How the values were obtained:
TGF-β2 [1] = biological target: T1, TGF-β2 (Homo sapiens, UniProt P61812); test: Ligand blot analysis of 125I-TGF-β2 binding to PVDF-immobilized proteins; conditions: SDS-PAGE, PVDF membrane, 125I-TGF-β2 20 pM, 2 h at 25° C.
T1 construct: purchased Genzyme (Cambridge, Mass.)
T1 sequence (P61812 303-414 limits assumed): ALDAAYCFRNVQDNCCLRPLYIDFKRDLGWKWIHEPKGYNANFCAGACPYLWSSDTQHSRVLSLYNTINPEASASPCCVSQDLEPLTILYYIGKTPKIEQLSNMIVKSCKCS
Protocol: To block free sulfhydryls, some samples were treated with 5 mM IAM for 2 h at 25° C. Equivalent amounts of each protein ([…]) were subjected to SDS-PAGE on 10% slabs. IAM-treated GST-α2 M-peptide fusion proteins were subjected to SDS-PAGE as well. All samples were electro-transferred to PVDF membranes. The membranes were blocked with 5% milk and 0.1% Tween 20 in PBS for 12 h at 4° C. and then rinsed with 0.1% Tween 20 in PBS (PBS-T). […] Biophys. Res. Commun. […] NGF-β was radioiodinated with Iodogen, to a specific activity of 2-5 μCi/μg, using the method recommended by the manufacturer. […] After washing the membranes with PBS-T, bound radioligands were detected by Phosphorlmager analysis.

FBHE cells = test: Endothelial cell proliferation assay, TGF-β alone; format: cell-based, bovine; conditions: TGF-β 10 pM, 1 h pulse
Protocol: (§1) Fetal bovine heart endothelial (FBHE) cells were cultured in DMEM supplemented with 10% FBS, 20 ng/ml acidic fibroblast growth factor, and 80 ng/ml basic fibroblast growth factor and passaged at subconfluence with trypsin-EDTA. To perform proliferation assays, the cells were plated at a density of 2×10^4 /well (24 well plates) in DMEM supplemented with 0.2% FBS. […] The fusion proteins were preincubated with the TGF-β for 15 min prior to addition to the cultures. At the completion of an incubation, the cultures were washed 3 times with serum-free DMEM and then allowed to incubate in DMEM with 0.2% FBS for 30 h. [^3 H]Thymidine was added for an additional 18 h; the cells were then harvested and [^3 H]thymidine incorporation was quantitated.

TGF-β2 [2] = biological target: T1, TGF-β2; test: Binding of 125I-TGF-β2 to FP3 and FP4 in solution as determined by FPLC on Superose-12; conditions: fusion protein 0.5 μM, 125I-TGF-β2 0.5 nM, 30 min 37° C., n=2
Protocol: The flow rate was 0.4 ml/min. […] To calibrate the FPLC, the following proteins were subjected to chromatography on the same column: soybean trypsin inhibitor (Mr~21,500, Ve of 14.1 ml), ovalbumin (Mr~45,000, Ve of 12.9 ml), BSA (Mr~66,000, Ve of 12.1 ml), and BSA dimer (Mr~132,000, Ve of 10.9 ml).

TGF-β2 [3] = biological target: T1, TGF-β2; test: 125I-TGF-β2 binding to immobilized α2M-MA, solution-phase competition; conditions: increasing concentrations (4-250 nM)
Protocol: The wells were washed three times with PBS-T and blocked with PBS-T for 16 h at 4° C. […] In the presence of a fusion protein (FP) which binds TGF-β, the total concentration of TGF-β [βT ] was related to [βF ], at equilibrium, as follows: [βT ]=[βF ](1+[FP]/KI).

TGF-β1 [4] = biological target: T2, TGF-β1 (Homo sapiens, UniProt P01137); test: Endothelial cell proliferation assay, neutralization of TGF-β1 by fusion proteins; format: cell-based
T2 construct: purchased R&D Systems (Minneapolis, Minn.)
Protocol: as §1

TGF-β2 [5] = biological target: T1, TGF-β2; test: Endothelial cell proliferation assay, neutralization of TGF-β2 by fusion proteins; format: cell-based
Protocol: as §1

RAW 264.7 cells = test: NO synthesis (nitrite in conditioned medium) by RAW 264.7 cells; format: cell-based, murine; conditions: 250 nM, SFM, 24 h
Protocol: NO synthesis by RAW 264.7 cells was quantitated by measuring the stable NO oxidation product, nitrite, in conditioned medium, as previously described (Anal. Biochem. 126, 131-138 (1982)). […] The fusion proteins were purified and detergent-free. After 24 h, conditioned medium (100 μl) was recovered and nitrite was measured. […] Biol, Chem. 270, 21919-21927 (1995)). The α2 M-induced increase in RAW 264.7 cell NO synthesis is inhibited by the NOS inhibitor, N^G -monomethyl-L-arginine.

TGF-β1 [6] = biological target: T2, TGF-β1; conditions: read-out: KD for TGF-β1 (either TGF-β isoform); cited from earlier work
TGF-β2 [7] = biological target: T1, TGF-β2; conditions: read-out: KD for TGF-β2 (either TGF-β isoform); cited from earlier work

B2: TGF-β2: transforming growth factor-β2 from Genzyme (protein, UniProt P61812 303-414, looked up)
Transforming growth factor …: T1 sequence (P61812 303-414 limits assumed)
Decrease of [3H]thymidine incorporation (FBHE cells): 57%

B3: FP4: GST-fusion protein with human α2M amino acids 798-1082 (protein)
chain: CIRVSVQLEASPAFLAVPVEKEQAPHCICANGRQTVSWAVTPKSLGNVNFTVSAEALESQELCGTEVPSVPEHGRKDTVIKPLLVEPEGLEKETTFNSLLCPSGGEVSEELSLKLPPNVVEESARASVSVLGDILGSAMQNTQNLLQMPYGCGEQNMVLFAPNIYVLDYLNETQQLTPEIKSKAIGYLNTGYQRQLNYKHYDGSYSTFGERYGRNQGNTWLTAFVLKTFAQARAYIFIDEAHITQALIWLSQRQKDNGCFRSSGSLLNNAIKGGVEDEVTLSAYI
modifications: free sulfhydryls blocked with iodoacetamide (IAM)
125I-TGF-β2 binding, ligand blot (TGF-β2 [1]): did not bind | 125I-TGF-β2 recovered (co-eluted) with the fusion protein (TGF-β2 [2]): 6% | Inhibition of 125I-TGF-β2 binding to immobilized α2M-MA (TGF-β2 [3]): did not inhibit | [3H]thymidine incorporation (% control) (TGF-β1 [4]; FBHE cells, fusion protein (0.2 μM) + TGF-β1 (10 pM), 1 h pulse): 31 ± 4% | Effect on TGF-β1 activity in FBHE proliferation assay (TGF-β1 [4]; fusion protein 200 nM, TGF-β1 10 pM): No change in TGF-β activity | [3H]thymidine incorporation (% control) (TGF-β2 [5]; FBHE cells, fusion protein (0.2 μM) + TGF-β2 (10 pM), 1 h pulse): 38 ± 6% | Effect on TGF-β2 activity in FBHE proliferation assay (TGF-β2 [5]; fusion protein 200 nM, TGF-β2 10 pM): No change in TGF-β activity | Nitrite production by RAW 264.7 cells (RAW 264.7 cells): did not increase nitrite production

B4: FP1: GST-fusion protein with human α2M amino acids 122-415 (protein)
chain: KFRVVSMDENFHPLNELIPLVYIQDPKGNRIAQWQSFQLEGGLKQFSFPLSSEPFQGSYKVVVQKKSGGRTEHPFTVEEFVLPKFEVQVTVPKIITILEEEMNVSVCGLYTYGKPVPGHVTVSICRKYSDASDCHGEDSQAFCEKFSGQLNSHGCFYQQVKTKVFQLKRKEYEMKLHTEAQIQEEGTVVELTGRQSSEITRTITKLSFVKVDSHFRQGIPFFGQVRLVDGKGVPIPNKVIFIRGNEANYYSNATTDEHGLVQFSINTTNVMGTSLTVRVNYKDRSPCYGYQWVS
modifications: free sulfhydryls blocked with iodoacetamide (IAM)
125I-TGF-β2 binding, ligand blot (TGF-β2 [1]): did not bind

B6: MUG: monomeric murine homologue of human α2M, purified from plasma of CD-1 female mice (protein)
chain: DSKYMVLVPSQLYTETPEKICLHLYQLNETVTVTASLVSQSGRKNLFDELVLDKDLFQCVSFIIPRLSSSDEEDFLYVDIKGPTHEFSKRKAVLVKNKESVVFVQTDKPVYKPGQSVKFRVVSMDKMLRPLNELLPLAYIEDPKKNRIMQWRDIKTENGLKQMSFSLAAEPIQGPYKIVVHKESGEKEEHSFTVMEFVLPRFNVDLKVPNAMSVNDEVLSVTACGKYTYGKPVPGHVKINVCRETETGCREVNSQLDNNGCSTQEVNITELQSKKRNYEVQLFHVNATVTEEGTGLEFSRSGTTKIERITNKLIFLKADSHFRHGIPFFVKVRLVDIKGDPIPNEKVFIKAQELSYTSATTTDQHGLAEFSIDTTCISGSSLHIKVNHKEEDSCSYFYCMEERHASAKHVAYAVYSLSKSYIYLDTETSSILPCNQIHTVQAHFILKGDLGVLKELIFYYLVMAQGSIIQTGNHTHQVEPGEAPVKGKFALEIPVEFSMVPMAKMLIYTILPDGEVIADSVNFEIEKCLRNKVDLRFSTSQSLPASQTRLQVTASPQSLCGLRAVDQSVLLLKPESELSPSWIYNLPGMQQNKFVPSSRLSEDQEDCILYSSWLAEKHTNLVPHGTEKDVYRYVEDMGLTAFTNLMIKLPIICFDYGMVPISAPRVEFDLAFTPEISWSLRTTLSKRPEEPPRKDPSSNDPLTETIRKYFPETWVWDIVTVNSTGLAEVEMTVPDTITEWKAGALCLSNDTGLGLSSVVPLQAFKPFFVEVSLPYSVVRGEAFMLKATVMNYLPTSMQMSVQLEASPDFTAVPVGDDQDSYCLSANGRHTSSWLVTPKSLGNVNFSVSAEAQQSSEPCGSEVATVPETGRKDTVVKVLIVEPEGIKQEHTFSSLFCASDAEISEKMSLVLPPTVVKDSARAHFSVMGDILSSAIRNTQNLLHMPYGCGEQNMVLFAPNIYVLKYLNETQQLTQKIKTKALGFLRAGYQRELNYKHKDGSYSAFGDQNGEREGNTWLTAFVLKSFAQARAFIFIDESHITHAFTWLSQKQKDNGCFRSSGSLFNNAMKGGVDDEMTLSAYITMALLESSLPATHPVVSKALSCLESSWKTIEQERNASFVYTKALMAYAFALAGNQNKRDEILKSLDEEAIKENNSIHWKRPQKSRKSEHHLYKPQASSAEVEMNAYVVLARLTAQPAPSPEDLTLSMSTIMWLTKQQNSNGGFSSTQDTVVALDALSKYGAVTFSRSQKTTLVTIQSTGSFSQKFQVENSNRLLLQQVALPDIPGDYTISVSGEGCVYAQTMLRYNMHLEKQLSAFAIWVQTVPLTCNNPKGHNSFQISLEISYTGSRPASNMVIADVKMLSGFIPLKPTVKKLERLEHVSRTEVSNNNVLIYLDQVTNQTLAFSFIIQQDIPVRNLQPAIVKVYDYYETDEMAFAEYSSPCSTDKQNV
125I-TGF-β2 binding, ligand blot (TGF-β2 [1]): only trace levels | Kd (TGF-β1 [6]): ~1000 nM | Kd (TGF-β2 [7]): ~1000 nM

More lines, now with the values ahead:

125I-TGF-β2 binding, ligand blot (TGF-β2 [1]): did not bind
B1: FP2: GST-fusion protein with human α2M amino acids 364-613 (protein)
chain: RGNEANYYSNATTDEHGLVQFSINTTNVMGTSLTVRVNYKDRSPCYGYQWVSEEHEEAHHTAYLVFSPSKSFVHLEPMSHELPCGHTQTVQAHYILNGGTLLGLKKLSFYYLIMAKGGIVRTGTHGLLVKQEDMKGHFSISIPVKSDIAPVARLLIYAVLPTGDVIGDSAKYDVENCLANKVDLSFSPSQSLPASHAHLRVTAAPQSVCALRAVDQSVLLMKPDAELSASSVYNLLPEKDLTGFPGPLND
modifications: free sulfhydryls blocked with iodoacetamide (IAM)

125I-TGF-β2 binding, ligand blot (TGF-β2 [1]): did not bind
B5: FP5: GST-fusion protein with human α2M amino acids 1053-1302 (protein)
chain: DNGCFRSSGSLLNNAIKGGVEDEVTLSAYITIALLEIPLTVTHPVVRNALFCLESAWKTAQEGDHGSHVYTKALLAYAFALAGNQDKRKEVLKSLNEEAVKKDNSVHWERPQKPKAPVGHFYEPQAPSAEVEMTSYVLLAYLTAQPAPTSEDLTSATNIVKWITKQQNAQGGFSSTQDTVVALHALSKYGAATFTRTGKAAQVTIQSSGTFSSKFQVDNNNRLLLQQVSLPELPGEYSMKVTGEGCVYLQ
modifications: free sulfhydryls blocked with iodoacetamide (IAM)
